Patent publication US5840530, “DNA encoding receptors for the beta-2 chain of human IL-12” (Hoffmann-La Roche Inc., dated 1998)

How the values were obtained:
[1] = molecular target: T1, human IL-12 receptor beta1 and beta2 coexpressed on COS cells (cotransfection of the pEF-BOS beta1 plasmid … (human)); assay: equilibrium binding of 125I-labeled IL-12 to COS cells cotransfected with beta1 and beta2 plasmids, Scatchard analysis, low affinity site
Description: (§1) Recombinant human IL-12 was labeled with ^125I as follows. Iodogen was dissolved in chloroform. 0.05 mg aliquots of Iodogen were dried in 12×150 mm borosilicate glass tubes. For radiolabeling, 1.0 mCi Na[^125I] was added to the Iodogen-coated borosilicate glass tube, which also contained 0.05 ml of Tris-iodination buffer (25 mM Tris-HCL pH 7.5, 0.4M NaCl and 1 mM EDTA) to form a ^125I solution. The ^125I solution was activated by incubating for 6 minutes at room temperature. The activated ^125I solution was transferred to a tube containing 0.05 to 0.1 ml recombinant human IL-12 (31.5 µg) in Tris-iodination buffer. The resulting mixture of the activated ^125I solution and the recombinant human IL-12 was incubated for 6 minutes at room temperature. At the end of the incubation, 0.05 ml of Iodogen stop buffer (10 mg/ml tyrosine, 10% glycerol in Dulbecco's phosphate buffered saline (PBS), pH 7.40) was added and reacted for 3 minutes. The resulting mixture was then diluted with 1.0 ml Tris-iodination buffer containing 0.25% bovine serum albumin (BSA), and applied to a Bio-Gel P10DG desalting column for chromatography. The column was eluted with Tris-iodination buffer containing 0.25% BSA. […] The TCA precipitable radioactivity (10% TCA final concentration) was typically in excess of 95% of the total radioactivity. […]

[2] = molecular target: T1, human IL-12 receptor beta1 and beta2 …; assay: equilibrium binding of 125I-labeled IL-12 to COS cells cotransfected with beta1 and beta2 plasmids, Scatchard analysis, high affinity site
Description: as §1

Kd [1]: 5 nM | Kd [2]: 0.05 nM
B1: recombinant human IL-12 (Interleukin-12) (ligand)
chain 1: IWELKKDVYVVELDWYPDAPGEMVVLTCDTPEEDGITWTLDQSSEVLGSGKTLTIQVKEFGDAGQYTCHKGGEVLSHSLLLLHKKEDGIWSTDILKDQKEPKNKTFLRCEAKNYSGRFTCWWLTTISTDLTFSVKSSRGSSDPQGVTCGAATLSAERVRGDNKEYEYSVECQEDSACPAAEESLPIEVMVDAVHKLKYENYTSSFFIRDIIKPDPPKNLQLKPLKNSRQVEVSWEYPDTWSTPHSYFSLTFCVQVQGKSKREKKDRVFTDKTSATVICRKNASISVRAQDRYYSSSWSEWASVPCS
chain 2: RNLPVATPDPGMFPCLHHSQNLLRAVSNMLQKARQTLEFYPCTSEEIDHEDITKDKTSTVEACLPLELTKNESCLNSRETSFITNGSCLASRKTSFMMALCLSSIYEDLKMYQVEFKTMNAKLLMDPKRQIFLDQNMLAVIDELMQALNFNSETVPQKSSLEEPDFYKTKIKLCILLHAFRIRAVTIDRVMSYLNAS
